B1: LINE1-mini (parent)
chain: GGCAGAGCUCAACACAGCGUGGCAAAGUGGCUGUGGCUAGACUGCC

Variants of: B1
Assay: self-cleavage, relative activity (ratio to wild type); higher = more cleavage; in vitro, sequencing; the parent is a self-cleaving ribozyme

Row | Variant | self-cleavage
1 | A11C C23A | 0.07
2 | A11C C23U | 0.05
3 | A11C C23G | 0.06
4 | A11C C13G | 0.03
5 | A11C C13U | 0.03
6 | A11C C13A | 0.03
7 | A11C G21C | 0.08
8 | A11C G21A | 0.26
9 | A11C G21U | 0.1
10 | A11C A24C | 0.04
11 | A11C A24G | 0.06
12 | A11C A24U | 0.11
13 | A11C C45A | 0.05
14 | A11C C45G | 0.02
15 | A11C C45U | 0.12
16 | A11C A16C | 0.01
17 | A11C A16U | 0.02
18 | A11C A16G | 0.05
19 | C10U C37U | 0.02
20 | C10U C37A | 0.02
21 | C10U C37G | 0.02
22 | A11C C46U | 0.11
23 | A11C C46A | 0.03
24 | A11C C46G | 0.02

Row | Variant | self-cleavage
25 | C10U U20A | 0.18
26 | C10U U20G | 0.18
27 | C10U U20C | 0.28
28 | A11C G22U | 0.07
29 | A11C G22A | 0.12
30 | A11C G22C | 0.04
31 | C10U A24G | 0.35
32 | C10U A24C | 0.11
33 | C10U A24U | 0.48
34 | C10U G35C | 0.04
35 | C10U G35U | 0.05
36 | C10U G35A | 0.08
37 | A11C C42U | 0.02
38 | A11C C42G | 0.03
39 | A11C C42A | 0.02
40 | A11C C31G | 0.01
41 | A11C C31A | 0.02
42 | A11C C31U | 0.03
43 | C10U G36U | 0.03
44 | C10U G36C | 0.05
45 | C10U G36A | 0.08
46 | C10U G27A | 0.27
47 | C10U G27C | 0.23
48 | C10U G27U | 0.31

Row | Variant | self-cleavage
49 | C10U A25U | 0.48
50 | C10U A25G | 0.39
51 | C10U A25C | 0.21
52 | C10U G21U | 0.33
53 | C10U G21A | 0.68
54 | C10U G21C | 0.19
55 | C10U A41U | 0.16
56 | C10U A41C | 0.03
57 | C10U A41G | 0.07
58 | C10U U28G | 0.23
59 | C10U U28C | 0.13
60 | C10U U28A | 0.16
61 | C10U C15G | 0.05
62 | C10U C15U | 0.28
63 | C10U C15A | 0.06
64 | A11C A14C | 0.02
65 | A11C A14G | 0.04
66 | A11C A14U | 0.03
67 | A11C A12C | 0.02
68 | A11C A12U | 0.03
69 | A11C A12G | 0.04
70 | C10U A16U | 0.19
71 | C10U A16C | 0.06
72 | C10U A16G | 0.19

Row | Variant | self-cleavage
73 | C10U G30U | 0.59
74 | C10U G30C | 0.36
75 | C10U G30A | 0.54
76 | C10U G44U | 0.13
77 | C10U G44A | 0.15
78 | C10U G44C | 0.16
79 | A11C A26G | 0.05
80 | A11C A26U | 0.11
81 | A11C A26C | 0.03
82 | C10U G22C | 0.18
83 | C10U G22A | 0.25
84 | C10U G22U | 0.42
85 | A11C A41C | 0.01
86 | A11C A41G | 0.03
87 | A11C A41U | 0.04
88 | A11C G27A | 0.11
89 | C10U U38G | 0.03
90 | C10U U38A | 0.04
91 | C10U U38C | 0.17
92 | C10U U32C | 0.1
93 | C10U U32G | 0.12
94 | C10U U32A | 0.08
95 | C10U G19C | 0.24
96 | C10U G19A | 0.32

Row | Variant | self-cleavage
97 | C10U G19U | 0.21
98 | A11C G17A | 0.03
99 | A11C G17C | 0.02
100 | A11C G17U | 0.03
101 | C10U A26U | 0.31
102 | C10U A26C | 0.31
103 | C10U A26G | 0.4
104 | C10U C23U | 0.43
105 | C10U C23G | 0.26
106 | C10U C23A | 0.43
107 | C10U G40A | 0.02
108 | C10U G40C | 0.04
109 | C10U G40U | 0.06
110 | C10U U34G | 0.32
111 | C10U U34A | 0.14
112 | C10U U34C | 0.08
113 | A11C G19U | 0.04
114 | A11C G19C | 0.08
115 | A11C G19A | 0.05
116 | C10U G17A | 0.34
117 | C10U G17U | 0.33
118 | C10U G17C | 0.61
119 | C10U C46U | 0.21
120 | C10U C46A | 0.33

Row | Variant | self-cleavage
121 | C10U C46G | 0.32
122 | C10U A39G | 0.08
123 | C10U A39C | 0.17
124 | C10U A39U | 0.37
125 | C10U C42U | 0.1
126 | C10U C42A | 0.05
127 | C10U C42G | 0.05
128 | C10U A14U | 0.14
129 | C10U A14C | 0.05
130 | C10U A14G | 0.22
131 | C10U G29A | 0.18
132 | C10U G29C | 0.2
133 | C10U G29U | 0.39
134 | C10U C13A | 0.06
135 | C10U C13U | 0.06
136 | C10U C13G | 0.09
137 | A11C C37A | 0.02
138 | A11C C37G | 0.01
139 | A11C C37U | 0.02
140 | A11C A25G | 0.08
141 | A11C A25U | 0.09
142 | A11C A25C | 0.09
143 | A11C C15G | 0.02
144 | A11C C15U | 0.03

Row | Variant | self-cleavage
145 | A11C C15A | 0.02
146 | C10U C45A | 0.15
147 | C10U C45U | 0.23
148 | C10U C45G | 0.15
149 | C10U U43C | 0.03
150 | C10U U43G | 0.19
151 | C10U U43A | 0.04
152 | C10U C31G | 0.05
153 | C10U C31U | 0.54
154 | C10U C31A | 0.13
155 | A11C C18U | 0.04
156 | A11C C18A | 0.02
157 | A11C C18G | 0.05
158 | A11C A39C | 0.02
159 | A11C A39U | 0.03
160 | A11C A39G | 0.03
161 | C10U C18U | 0.34
162 | C10U C18A | 0.28
163 | C10U C18G | 0.22
164 | A11C | 0.08
165 | C10U G33U | 0.04
166 | C10U G33A | 0.05
167 | C10U G33C | 0.04

— the RNAGym collection of RNA variant scans (doi:10.7554/elife.90254)
